In patent EP1728864A1 (dated 2006):

B1: 39-1.106 (antibody, mouse IgG1, V domains shown)
VH: EVKLVESGGGLVKPGGSLKLSCTTSGFTFNNYAMSWVRQTPEKRLEWVASISSGDSTYYFDSVRGRFTISRDNARNILYLQMSSLRSEDTAMYYCARHYDYDSYAMDYWGQGTSVTVS
VL: DIQMTQSPASLSASVGETVTITCRASETIYSYLAWYQQKQGRSPQLLVYNAKTLAEGVPSRFSGSGSGTQFSLKINSLQPEDFGSYYCQHHYNTPLTFGTGTKLELKR
notes: murine IgG1, kappa
B2: 39-1.7 (antibody, mouse IgG2b, V domains shown)
VH: EVQLQQSGPELVKPGASVKMSCKASGYTFTDYYMKWVKQSHGKSLEWIGNINPNNGDTFFNQKFEGKATLTVDKSSSAAYMQLNSLTSEDSAVKKCARGPGTNYFDYWGQGTTLTVSS
VL: DIVLTQSPVSLAVSLGQRVTISCRASQSVSSSTNSYMHWYQQKPGQPPKLLIKYASNLESGVPARFSGSGSGTDFTLNIHPVEEEDTATYYCQHSWEIPFTFGSGTKLEIRR
B3: 106 sFv-Ig (scFv)
scFv: DIQMTQSPASLSASVGETVTITCRASETIYSYLAWYQQKQGRSPQLLVYNAKTLAEGVPSRFSGSGSGTQFSLKINSLQPEDFGSYYCQHHYNTPLTFGTGTKLELKRGGGGSGGGGSGGGGSEVKLVESGGGLVKPGGSLKLSCTTSGFTFNNYAMSWVRQTPEKRLEWVASISSGDSTYYFDSVRGRFTISRDNARNILYLQMSSLRSEDTAMYYCARHYDYDSYAMDYWGQGTSVTVS
notes: VL-linker-VH-human Ig, monomeric; L6 V kappa leader used for secretion; not shown: hinge-CH2-CH3 of human IgG1

Columns and labels:
[1] = biological target: T1, human gp39 (cell-expressed, full length) (human, UniProt P29965 1-261); test: saturation binding of iodinated protein to BMS-10 Jurkat cells
T1 construct: whole, on cells; also called CD40 ligand; CD40-L
T1 sequence (looked up): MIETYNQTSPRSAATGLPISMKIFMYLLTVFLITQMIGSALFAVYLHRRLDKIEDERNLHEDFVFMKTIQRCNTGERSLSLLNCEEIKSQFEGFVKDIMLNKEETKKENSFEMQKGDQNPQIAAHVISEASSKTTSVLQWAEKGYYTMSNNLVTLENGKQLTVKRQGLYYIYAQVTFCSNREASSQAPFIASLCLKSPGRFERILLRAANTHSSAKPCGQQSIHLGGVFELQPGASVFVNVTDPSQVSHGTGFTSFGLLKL

[2] = biological target: T1, human gp39 (cell-expressed, full length); test: saturation binding of radiolabeled protein to gp39+ Jurkat cells
[3] = biological target: sgp39 mutant K143/A (murine; human); test: ELISA on captured mutant sgp39
[4] = biological target: sgp39 mutant S131/A-T135/A (murine; human); test: ELISA on captured mutant sgp39
[5] = biological target: sgp39 mutant N180/A (murine; human); test: ELISA on captured mutant sgp39
[6] = biological target: sgp39 mutant E129/A (murine; human); test: ELISA on captured mutant sgp39
[7] = biological target: sgp39 mutant Y145/A (murine; human); test: ELISA on captured mutant sgp39
[8] = biological target: sgp39 mutant F201/A-E202/A (murine; human); test: ELISA on captured mutant sgp39
[9] = biological target: T1, human gp39 (cell-expressed, full length); test: cell-based or functional assay

Binder	Kd [1] [nM]	fold greater affinity than 106 sFv-Ig [2] [fold]	% of binding to wild-type sgp39 [3] [%]	% of binding to wild-type sgp39 [4] [%]	% of binding to wild-type sgp39 [5] [%]	% of binding to wild-type sgp39 [6] [%]	% of binding to wild-type sgp39 [7] [%]	% of binding to wild-type sgp39 [8] [%]	IgG synthesis, % of medium only control, 0.94 x10^12 binding sites/ml [9] [%]	IgG synthesis, % of medium only control, 1.88 x10^12 binding sites/ml [9] [%]	IgG synthesis, % of medium only control, 3.76 x10^12 binding sites/ml [9] [%]	IgG synthesis, % of medium only control, 7.53 x10^12 binding sites/ml [9] [%]	IgM synthesis, % of medium only control, 0.94 x10^12 binding sites/ml [9] [%]	IgM synthesis, % of medium only control, 1.88 x10^12 binding sites/ml [9] [%]	IgM synthesis, % of medium only control, 3.76 x10^12 binding sites/ml [9] [%]	IgM synthesis, % of medium only control, 7.53 x10^12 binding sites/ml [9] [%]
B1	0.4	~3	52	113	144	130	124	9	37	26	24	11	34	27	19	25
B2	–	–	5	89	93	70	106	112	60	11	17	12	64	29	24	14
B3	1.6	–	–	–	–	–	–	–	21	10	12	14	19	12	12	12
